Legend:
HeLa Kyoto [1] = assay: solubility in G1/S (NP-40 vs SDS abundance) (log2 ratio); higher = more soluble; settings: cell cycle stage: G1/S
HeLa Kyoto [2] = assay: melting temperature (median over replicates), in situ; higher = more thermally stable
HeLa Kyoto [3] = assay: solubility change mitosis vs G1/S (difference of NP-40 vs SDS log2 ratios) (log2 ratio difference); higher = more soluble in mitosis
HeLa Kyoto [4] = assay: thermal stability score vs G1/S (z-score of summed log2 fold changes over temperatures); higher = more thermally stable than in G1/S
[5] = cell cycle stage: early G1 (4.5 h after nocodazole release)
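Wherever melting temperature (median over replicates), in situ is given: HeLa Kyoto cells synchronized by double thymidine or nocodazole block, proteins quantified by TMT10plex mass spectrometry, three independent biological replicates.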
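Wherever solubility change mitosis vs G1/S (difference of NP-40 vs SDS log2 ratios) is given: synchronized HeLa Kyoto cells (double thymidine block for G1/S, nocodazole release for mitosis), protein amounts in NP-40 versus SDS lysates quantified by mass spectrometry, three biological replicates.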
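Wherever solubility in G1/S (NP-40 vs SDS abundance) is given: HeLa Kyoto cells arrested at G1/S by double thymidine block, proteins quantified by TMT10plex mass spectrometry in mild NP-40 versus SDS extracts, three biological replicates.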
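Wherever thermal stability score vs G1/S (z-score of summed log2 fold changes over temperatures) is given: synchronized HeLa Kyoto cells, proteins quantified by TMT10plex mass spectrometry, three biological replicates, mitosis taken 0.5 h after nocodazole release, G1/S directly after double thymidine block.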

Sequence	solubility in G1/S (log2) (HeLa Kyoto [1])	melting temperature (HeLa Kyoto [2]; cell cycle stage: G1/S) [°C]	melting temperature (HeLa Kyoto [2]; cell cycle stage: mitosis) [°C]	solubility change mitosis (log2) (HeLa Kyoto [3])	thermal stability score (HeLa Kyoto [4]; [5])	thermal stability score (HeLa Kyoto [4]; cell cycle stage: mitosis)
MICTFLRAVQYTEKLHRSSAKRLLLPYIVLNKACLKTEPSLRCGLQYQKKTLRPRCILGVTQKTIWTQGPSPRKAKEDGSKQVSVHRSQRGGTAVPTSQKVKEAGRDFTYLIVVLFGISITGGLFYTIFKELFSSSSPSKIYGRALEKCRSHPEVIGVFGESVKGYGEVTRRGRRQHVRFTEYVKDGLKHTCVKFYIEGSEPGKQGTVYAQVKENPGSGEYDFRYIFVEIESYPRRTIIIEDNRSQDD [TIMM21]	-0.209	52.1	51.6	0.0282	0.315	-0.0739
MIEMAAEKEPFLVPAPPPPLKDESGGGGGPTVPPHQEAASGELRGGTERGPGRCAPSAGSPAAAVGRESPGAAATSSSGPQAQQHRGGGPQAQSHGEARLSDPPGRAAPPDVGEERRGGGGTELGPPAPPRPRNGYQPHRPPGGGGGKRRNSCNVGGGGGGFKHPAFKRRRRVNSDCDSVLPSNFLLGGNIFDPLNLNSLLDEEVSRTLNAETPKSSPLPAKGRDPVEILIPKDITDPLSLNTCTDEGHVVLASPLKTGRKRHRHRGQHHQQQQAAGGSESHPVPPTAPLTPLLHGEGASQQPRHRGQNRDAPQPYELNTAINCRDEVVSPLPSALQGPSGSLSAPPAASVISAPPSSSSRHRKRRRTSSKSEAGARGGGQGSKEKGRGSWGGRHHHHHPLPAAGFKKQQRKFQYGNYCKYYGYRNPSCEDGRLRVLKPEWFRGRDVLDLGCNVGHLTLSIACKWGPSRMVGLDIDSRLIHSARQNIRHYLSEELRLPPQTLEGDPGAEGEEGTTTVRKRSCFPASLTASRGPIAAPQVPLDGADTSVFPNNVVFVTGNYVLDRDDLVEAQTPEYDVVLCLSLTKWVHLNWGDEGLKRMFRRIYRHLRPGGILVLEPQPWSSYGKRKTLTETIYKNYYRIQLKPEQFSSYLTSPDVGFSSYELVATPHNTSKGFQRPVYLFHKARSPSH [MEPCE]	-0.115	47.8	49.8	0.364	2.47	4.6
MIFPVARYALRWLRRPEDRAFSRAAMEMALRGVRKVLCVAEKNDAAKGIADLLSNGRMRRREGLSKFNKIYEFDYHLYGQNVTMVMTSVSGHLLAHDFQMQFRKWQSCNPLVLFEAEIEKYCPENFVDIKKTLERETRQCQALVIWTDCDREGENIGFEIIHVCKAVKPNLQVLRARFSEITPHAVRTACENLTEPDQRVSDAVDVRQELDLRIGAAFTRFQTLRLQRIFPEVLAEQLISYGSCQFPTLGFVVERFKAIQAFVPEIFHRIKVTHDHKDGIVEFNWKRHRLFNHTACLVLYQLCVEDPMATVVEVRSKPKSKWRPQALDTVELEKLASRKLRINAKETMRIAEKLYTQGYISYPRTETNIFPRDLNLTVLVEQQTPDPRWGAFAQSILERGGPTPRNGNKSDQAHPPIHPTKYTNNLQGDEQRLYEFIVRHFLACCSQDAQGQETTVEIDIAQERFVAHGLMILARNYLDVYPYDHWSDKILPVYEQGSHFQPSTVEMVDGETSPPKLLTEADLIALMEKHGIGTDATHAEHIETIKARMYVGLTPDKRFLPGHLGMGLVEGYDSMGYEMSKPDLRAELEADLKLICDGKKDKFVVLRQQVQKYKQVFIEAVAKAKKLDEALAQYFGNGTELAQQEDIYPAMPEPIRKCPQCNKDMVLKTKKNGGFYLSCMGFPECRSAVWLPDSVLEASRDSSVCPVCQPHPVYRLKLKFKRGSLPPTMPLEFVCCIGGCDDTLREILDLRFSGGPPRASQPSGRLQANQSLNRMDNSQHPQPADSRQTGSSKALAQTLPPPTAAGESNSVTCNCGQEAVLLTVRKEGPNRGRQFFKCNGGSCNFFLWADSPNPGAGGPPALAYRPLGASLGCPPGPGIHLGGFGNPGDGSGSGTSCLCSQPSVTRTVQKDGPNKGRQFHTCAKPREQQCGFFQWVDENTAPGTSGAPSWTGDRGRTLESEARSKRPRASSSDMGSTAKKPRKCSLCHQPGHTRPFCPQNR [TOP3A]	-0.336	46.9	48.4	0.0865	1.18	1.85
MIIPSLEELDSLKYSDLQNLAKSLGLRANLRATKLLKALKGYIKHEARKGNENQDESQTSASSCDETEIQISNQEEAERQPLGHVTKTRRRCKTVRVDPDSQQNHSEIKISNPTEFQNHEKQESQDLRATAKVPSPPDEHQEAENAVSSGNRDSKVPSEGKKSLYTDESSKPGKNKRTAITTPNFKKLHEAHFKEMESIDQYIERKKKHFEEHNSMNELKQQPINKGGVRTPVPPRGRLSVASTPISQRRSQGRSCGPASQSTLGLKGSLKRSAISAAKTGVRFSAATKDNEHKRSLTKTPARKSAHVTVSGGTPKGEAVLGTHKLKTITGNSAAVITPFKLTTEATQTPVSNKKPVFDLKASLSRPLNYEPHKGKLKPWGQSKENNYLNQHVNRINFYKKTYKQPHLQTKEEQRKKREQERKEKKAKVLGMRRGLILAED [NUSAP1]	-0.327	54.7	54.6	0.535	1.75	-5.46
MIKLFSLKQQKKEEESAGGTKGSSKKASAAQLRIQKDINELNLPKTCDISFSDPDDLLNFKLVICPDEGFYKSGKFVFSFKVGQGYPHDPPKVKCETMVYHPNIDLEGNVCLNILREDWKPVLTINSIIYGLQYLFLEPNPEDPLNKEAAEVLQNNRRLFEQNVQRSMRGGYIGSTYFERCLK [UBE2M]	0.576	51.1	51.2	-0.0392	-1.49	-1.29
MIPLLLAALLCVPAGALTCYGDSGQPVDWFVVYKLPALRGSGEAAQRGLQYKYLDESSGGWRDGRALINSPEGAVGRSLQPLYRSNTSQLAFLLYNDQPPQPSKAQDSSMRGHTKGVLLLDHDGGFWLVHSVPNFPPPASSAAYSWPHSACTYGQTLLCVSFPFAQFSKMGKQLTYTYPWVYNYQLEGIFAQEFPDLENVVKGHHVSQEPWNSSITLTSQAGAVFQSFAKFSKFGDDLYSGWLAAALGTNLQVQFWHKTVGILPSNCSDIWQVLNVNQIAFPGPAGPSFNSTEDHSKWCVSPKGPWTCVGDMNRNQGEEQRGGGTLCAQLPALWKAFQPLVKNYQPCNGMARKPSRAYKI [DNASE2]	0.364	56.2	56.1	-0.0918	-1.39	-2.33
MIRAAPPPLFLLLLLLLLLVSWASRGEAAPDQDEIQRLPGLAKQPSFRQYSGYLKGSGSKHLHYWFVESQKDPENSPVVLWLNGGPGCSSLDGLLTEHGPFLVQPDGVTLEYNPYSWNLIANVLYLESPAGVGFSYSDDKFYATNDTEVAQSNFEALQDFFRLFPEYKNNKLFLTGESYAGIYIPTLAVLVMQDPSMNLQGLAVGNGLSSYEQNDNSLVYFAYYHGLLGNRLWSSLQTHCCSQNKCNFYDNKDLECVTNLQEVARIVGNSGLNIYNLYAPCAGGVPSHFRYEKDTVVVQDLGNIFTRLPLKRMWHQALLRSGDKVRMDPPCTNTTAASTYLNNPYVRKALNIPEQLPQWDMCNFLVNLQYRRLYRSMNSQYLKLLSSQKYQILLYNGDVDMACNFMGDEWFVDSLNQKMEVQRRPWLVKYGDSGEQIAGFVKEFSHIAFLTIKGAGHMVPTDKPLAAFTMFSRFLNKQPY [CTSA]	0.138	54.5	57	-0.0924	0.798	2.87

— the supplement of paper PMC5998384
